Data on 94 variants can be found in the supplement of paper PMC10567573.

First the molecules themselves.
B1: TRIM63 (parent)
chain: QEKKLSFIEALIQQYQEQLDKSTK
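Also: lentivirally expressed fusions sorted by FACS into six bins by GFP to DsRed ratio, PSI derived from sequencing read proportions per bin multiplied by bin number.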

The variants in the data set derive from B1. Put plainly: protein stability index of a GFP-peptide fusion (GPS, HEK-293T) (PSI 1-6); higher = more stable. The settings on record: c terminus: a fixed tail appended.
As to REKKLSFIEALIQQYQEQLDKSTK, the protein stability index came to 2.48.
Consider KEKKLSFIEALIQQYQEQLDKSTK, for which the protein stability index is 2.34.
Regarding NEKKLSFIEALIQQYQEQLDKSTK, the protein stability index amounted to 2.49.
The same measure for QAKKLSFIEALIQQYQEQLDKSTK: 1.63.
As for QNKKLSFIEALIQQYQEQLDKSTK, the protein stability index is 1.9.
The same measure for QPKKLSFIEALIQQYQEQLDKSTK: 2.93.
The same measure for QCKKLSFIEALIQQYQEQLDKSTK: 1.52; for QRKKLSFIEALIQQYQEQLDKSTK: 2.93.
Next, QFKKLSFIEALIQQYQEQLDKSTK: 2.44.
As for QWKKLSFIEALIQQYQEQLDKSTK, the protein stability index came out at 2.
Consider QQKKLSFIEALIQQYQEQLDKSTK, for which the protein stability index amounted to 2.25.
Next, QDKKLSFIEALIQQYQEQLDKSTK: 2.74.
The same measure for QEKKLSFIEALIQQYQDQLDKSTK: 3.
As to QEKKLSFIEALIQQYQHQLDKSTK, the protein stability index came to 2.11.
On to QEKKLSFIEALIQQYQLQLDKSTK, for which the protein stability index came out at 1.8.
For the variant QEKKLSFIEVLIQQYQEQLDKSTK, the protein stability index was 2.38.
With QEKKLSFIEQLIQQYQEQLDKSTK, the protein stability index amounted to 2.89.
The same measure for QEKKLSFIEILIQQYQEQLDKSTK: 2.54.
Take QEKKLSFIEYLIQQYQEQLDKSTK: the protein stability index worked out at 2.06.
Turning to QEKKLSFIEKLIQQYQEQLDKSTK, the protein stability index was 2.39.
The same measure for QEKKLSFIEALIQGYQEQLDKSTK: 3.13; for QEKKLSFIEALIQYYQEQLDKSTK: 1.95.
Turning to QEKKLSFIEALIQPYQEQLDKSTK, the protein stability index was found to be 3.86.
With QEKKLSFIEALIQEYQEQLDKSTK, the protein stability index was found to be 2.91.
Take QEKKLSFIEALIQNYQEQLDKSTK: the protein stability index amounted to 3.03.
As for QEKKLSFIEALIQWYQEQLDKSTK, the protein stability index was found to be 1.07.
Take QEKKLSFIEALIQMYQEQLDKSTK: the protein stability index amounted to 2.44.
As to QEKKLSFIEALIQQYQEQDDKSTK, the protein stability index stood at 3.77.
Take QEKKLSFIEALIQQYQEQFDKSTK: the protein stability index amounted to 2.38.
As to QEKKLSFIEALIQQYQEQWDKSTK, the protein stability index turned out to be 2.32.
Next, QEKKLSFIEALIQQYQEQHDKSTK: 3.54.
Next, QEKKLSFIEALIQQYQEQRDKSTK: 2.91.
In the case of QEKKLSFIEALIQQYQEQPDKSTK, the protein stability index amounted to 3.26.
Next, QEKMLSFIEALIQQYQEQLDKSTK: 1.68.
For QEKNLSFIEALIQQYQEQLDKSTK, the protein stability index was determined as 3.32.
Turning to QEKRLSFIEALIQQYQEQLDKSTK, the protein stability index came out at 2.77.
As for QEKYLSFIEALIQQYQEQLDKSTK, the protein stability index was determined as 2.53.
In the case of QEKPLSFIEALIQQYQEQLDKSTK, the protein stability index is 3.07.
Turning to QEKLLSFIEALIQQYQEQLDKSTK, the protein stability index came to 2.
QEKKLSFQEALIQQYQEQLDKSTK: the protein stability index worked out at 4.32.
For the variant QEKKLSFGEALIQQYQEQLDKSTK, the protein stability index was 5.05.
The same measure for QEKKLSFDEALIQQYQEQLDKSTK: 4.44.
In the case of QEKKLSFLEALIQQYQEQLDKSTK, the protein stability index came to 2.14.
For QEKKLSFEEALIQQYQEQLDKSTK, the protein stability index was determined as 4.76.
In the case of QEKKLSFFEALIQQYQEQLDKSTK, the protein stability index is 2.78.
The same measure for QEKKLSFHEALIQQYQEQLDKSTK: 4.92.
With QEKKLSFIEALNQQYQEQLDKSTK, the protein stability index came out at 4.47.
For QEKKLSFIEALTQQYQEQLDKSTK, the protein stability index turned out to be 4.45.
Consider QEKKLSFIEALMQQYQEQLDKSTK, for which the protein stability index was found to be 2.95.
The same measure for QEKKLSFIEALDQQYQEQLDKSTK: 5.25; for QEKKLKFIEALIQQYQEQLDKSTK: 2.62; for QEKKLEFIEALIQQYQEQLDKSTK: 2.86.
Next, QEKKLLFIEALIQQYQEQLDKSTK: 2.2.
In the case of QEKKLHFIEALIQQYQEQLDKSTK, the protein stability index is 2.39.
For QEKKLGFIEALIQQYQEQLDKSTK, the protein stability index amounted to 2.8.
For the variant QEKKLYFIEALIQQYQEQLDKSTK, the protein stability index is 2.09.
The same measure for QEKKLSFIEAQIQQYQEQLDKSTK: 4.81.
The same measure for QEKKLSFIEAWIQQYQEQLDKSTK: 3.43; for QEKKLSFIEAGIQQYQEQLDKSTK: 4.46.
On to QEKKLSFIEAIIQQYQEQLDKSTK, for which the protein stability index is 2.02.
Consider QEKKLSFIEAPIQQYQEQLDKSTK, for which the protein stability index was 5.29.
Next, QEKKLSFIEAKIQQYQEQLDKSTK: 4.45.
Consider QEKKLSFIEARIQQYQEQLDKSTK, for which the protein stability index stood at 4.58.
The same measure for QEKKLSFIEATIQQYQEQLDKSTK: 3.96; for QEKKLSFIEAVIQQYQEQLDKSTK: 2.65; for QEKKLSFIEAFIQQYQEQLDKSTK: 2.79.
For the variant QEKKLSFIEASIQQYQEQLDKSTK, the protein stability index is 5.13.
QEKKLSFIEALIQQYQEFLDKSTK: the protein stability index stood at 1.98.
As to QEKKLSFIEALIQQYQEPLDKSTK, the protein stability index was 3.31.
Next, QEKKLSFIEALIQQYQEDLDKSTK: 3.54.
The same measure for QEKKLSFIEALIQQYQEYLDKSTK: 2.49; for QEKKLSFIEALIQQYQESLDKSTK: 2.71.
As to QEKKLSFIEALIQQYQERLDKSTK, the protein stability index worked out at 2.51.
QEKKLSFIEALIQQYQEKLDKSTK: the protein stability index was 2.58.
The same measure for QEKKLSFIEALIQQYQEILDKSTK: 2.08.
For QEKKLSFIEALIQQYQETLDKSTK, the protein stability index stood at 2.93.
Take QEVKLSFIEALIQQYQEQLDKSTK: the protein stability index was 2.32.
The same measure for QESKLSFIEALIQQYQEQLDKSTK: 3.6; for QEQKLSFIEALIQQYQEQLDKSTK: 2.85.
Take QEIKLSFIEALIQQYQEQLDKSTK: the protein stability index came to 2.01.
On to QEYKLSFIEALIQQYQEQLDKSTK, for which the protein stability index was 2.88.
The same measure for QEWKLSFIEALIQQYQEQLDKSTK: 1.57.
On to QEGKLSFIEALIQQYQEQLDKSTK, for which the protein stability index came out at 3.03.
Regarding QEEKLSFIEALIQQYQEQLDKSTK, the protein stability index is 3.04.
Consider QEKKLSFIEALIQQYQEQLDKSEK, for which the protein stability index is 2.57.
For the variant QEKKLSFIEALIQQYQEQLDKSRK, the protein stability index worked out at 2.66.
In the case of QEKKLSFIEALIQQYQEQLDKSQK, the protein stability index came to 2.89.
Consider QEKKLSFIEALIQQYQEQLDKSVK, for which the protein stability index was 2.67.
Consider QEKKLSFIEALIQQYQEQLDKSHK, for which the protein stability index came to 2.53.
QEKKLSFIEALIQQYQEQLDKSDK: the protein stability index was determined as 3.33.
For the variant QEKKLSFIEALIQQYQEQLDKSMK, the protein stability index worked out at 1.92.
Consider QEKKLSFIEALIQQYQEQLDKSNK, for which the protein stability index came to 2.31.
Next, QEKKLSFIEALIQQYQEQLDKSGK: 2.77.
Regarding QEKKLSFIEALIQQYQEQLDKSCK, the protein stability index came to 2.72.
